According to the supplement of paper PMC9112550, “Optimization of the antimicrobial peptide Bac7 by deep mutational scanning” (BMC Biology, 2022):

system: Escherichia coli TOP10; assay: shrunken log2 fold change of peptide-encoding DNA abundance (4.5 h post-induction vs induction); higher = less antimicrobial activity (less host growth inhibition); conditions: time post-induction: 4.5 h; library: site-saturation at positions 5, 18, 19, 20
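Further: peptides expressed intracellularly from a pBAD plasmid library in pooled LB shake-flask culture, induced with 0.3% L-arabinose, DNA abundance read by NGS, three biological replicates, DESeq2 with apeglm shrinkage.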

Sequence	shrunken log2 fold change
RRIRIRPPRLPRPRPRPMLWPRP	0.0197
RRIRERPPRLPRPRPRPSQYPRP	-0.113
RRIRSRPPRLPRPRPRPNSVPRP	-0.509
RRIRMRPPRLPRPRPRPAFPPRP	-0.104
RRIRSRPPRLPRPRPRPNKYPRP	-0.653
RRIRPRPPRLPRPRPRPTRWPRP	-0.0766
RRIRWRPPRLPRPRPRPWNIPRP	-0.0879
RRIRSRPPRLPRPRPRPPNFPRP	0.291
RRIRDRPPRLPRPRPRPSDTPRP	-0.343
RRIRWRPPRLPRPRPRPMWVPRP	-0.0542
RRIRRRPPRLPRPRPRPQKRPRP	0.13
RRIRPRPPRLPRPRPRPVGMPRP	-0.0812
RRIRQRPPRLPRPRPRPVAWPRP	0.128
RRIRFRPPRLPRPRPRPYSSPRP	-0.571
RRIRCRPPRLPRPRPRPGHEPRP	0.00505
RRIRARPPRLPRPRPRPHNSPRP	1.18
RRIRPRPPRLPRPRPRPRTRPRP	0.187
RRIRIRPPRLPRPRPRPWCPPRP	0.0944
RRIRYRPPRLPRPRPRPSADPRP	-0.18
RRIRFRPPRLPRPRPRPKLLPRP	0.0539
RRIRSRPPRLPRPRPRPIFAPRP	0.192
RRIRVRPPRLPRPRPRPGACPRP	0.0218
RRIRGRPPRLPRPRPRPKTWPRP	0.155
RRIRVRPPRLPRPRPRPIEKPRP	0.0502
RRIRERPPRLPRPRPRPDPMPRP	-0.0562

Sequence	shrunken log2 fold change
RRIRERPPRLPRPRPRPTPYPRP	-0.389
RRIRHRPPRLPRPRPRPVSDPRP	0.132
RRIRARPPRLPRPRPRPLQWPRP	0.539
RRIRWRPPRLPRPRPRPMPCPRP	0.113
RRIRIRPPRLPRPRPRPDHTPRP	-0.25
RRIRWRPPRLPRPRPRPEFCPRP	0.335
RRIRVRPPRLPRPRPRPNRQPRP	-0.326
RRIRMRPPRLPRPRPRPMHEPRP	3.07
RRIRCRPPRLPRPRPRPPNIPRP	-0.573
RRIRCRPPRLPRPRPRPPVPPRP	0.587
RRIRARPPRLPRPRPRPRLQPRP	0.637
RRIRVRPPRLPRPRPRPALLPRP	-0.211
RRIRLRPPRLPRPRPRPQIYPRP	-0.17
RRIRTRPPRLPRPRPRPMKNPRP	-0.146
RRIRKRPPRLPRPRPRPNSWPRP	0.222
RRIRQRPPRLPRPRPRPKESPRP	0.0355
RRIRMRPPRLPRPRPRPCSPPRP	0.0324
RRIRLRPPRLPRPRPRPFNEPRP	-0.255
RRIRFRPPRLPRPRPRPWNDPRP	-0.243
RRIRCRPPRLPRPRPRPMLKPRP	-0.141
RRIRWRPPRLPRPRPRPLDDPRP	0.454
RRIRTRPPRLPRPRPRPTGTPRP	-0.0721
RRIRHRPPRLPRPRPRPTLFPRP	0.267
RRIRQRPPRLPRPRPRPFPAPRP	-0.0923
RRIRYRPPRLPRPRPRPQVYPRP	-0.169

Sequence	shrunken log2 fold change
RRIRKRPPRLPRPRPRPSQIPRP	0.00892
RRIRQRPPRLPRPRPRPARTPRP	0.167
RRIRQRPPRLPRPRPRPSLCPRP	-0.0894
RRIRWRPPRLPRPRPRPRVLPRP	0.381
RRIRNRPPRLPRPRPRPHFDPRP	-0.356
RRIRSRPPRLPRPRPRPHPWPRP	-0.0172
RRIRARPPRLPRPRPRPRWIPRP	0.239
RRIRQRPPRLPRPRPRPDTNPRP	-0.413
RRIRVRPPRLPRPRPRPSLDPRP	-0.0324
RRIRNRPPRLPRPRPRPHEAPRP	-0.0663
RRIRTRPPRLPRPRPRPMWTPRP	-0.00193
RRIRPRPPRLPRPRPRPCPYPRP	-1.08
RRIRPRPPRLPRPRPRPACRPRP	0.183
RRIRSRPPRLPRPRPRPDTVPRP	-0.323
RRIRIRPPRLPRPRPRPKRCPRP	-0.00138
RRIRVRPPRLPRPRPRPRSFPRP	0.029
RRIRWRPPRLPRPRPRPYDDPRP	-0.321
RRIRVRPPRLPRPRPRPCNFPRP	-0.0271
RRIRQRPPRLPRPRPRPGQNPRP	-0.223
RRIRWRPPRLPRPRPRPWFGPRP	-0.0254
RRIRARPPRLPRPRPRPRETPRP	0.52
RRIRARPPRLPRPRPRPKCAPRP	0.363
RRIRDRPPRLPRPRPRPYYRPRP	-0.163
RRIRPRPPRLPRPRPRPHSIPRP	-0.418
RRIRKRPPRLPRPRPRPAQGPRP	1.39
